In paper PMC12170880:

Tests used:
Details in all cases: EMSA: 10 mM Tris-HCl pH 7.5, 50 mM NaCl, 1 mM EDTA, 5% glycerol, 1 mg/mL BSA, 1 mM DTT; 30 min, room temperature; 6% native PAGE, 0.5x TBE
[1] = molecular target: T1, HDIP1-c (Arabidopsis thaliana) (UniProt F4I0M4); assay: EMSA
T1 sequence: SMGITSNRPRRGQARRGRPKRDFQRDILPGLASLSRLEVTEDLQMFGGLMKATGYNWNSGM

[2] = molecular target: T2, HDIP1-a (Arabidopsis thaliana) (UniProt F4I0M4); assay: EMSA
T2 sequence: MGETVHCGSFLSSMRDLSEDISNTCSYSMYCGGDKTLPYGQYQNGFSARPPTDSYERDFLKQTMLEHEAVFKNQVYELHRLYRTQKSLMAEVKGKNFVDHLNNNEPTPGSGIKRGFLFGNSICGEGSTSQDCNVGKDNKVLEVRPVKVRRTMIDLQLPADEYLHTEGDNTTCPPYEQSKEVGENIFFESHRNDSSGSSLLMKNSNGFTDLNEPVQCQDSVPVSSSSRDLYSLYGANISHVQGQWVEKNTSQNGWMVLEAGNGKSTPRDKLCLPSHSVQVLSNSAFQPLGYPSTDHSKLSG

[3] = molecular target: T3, HDIP1-b (Arabidopsis thaliana) (UniProt F4I0M4); assay: EMSA
T3 sequence: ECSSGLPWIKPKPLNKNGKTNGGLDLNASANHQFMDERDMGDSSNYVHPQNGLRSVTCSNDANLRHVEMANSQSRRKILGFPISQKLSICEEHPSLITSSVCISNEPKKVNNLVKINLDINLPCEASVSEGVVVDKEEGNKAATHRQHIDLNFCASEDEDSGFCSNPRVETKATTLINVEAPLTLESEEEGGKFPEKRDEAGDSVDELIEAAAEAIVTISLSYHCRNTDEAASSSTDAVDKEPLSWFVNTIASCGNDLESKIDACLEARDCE

[4] = molecular target: T4, HDIP1-d (Arabidopsis thaliana) (UniProt F4I0M4); assay: EMSA
T4 sequence: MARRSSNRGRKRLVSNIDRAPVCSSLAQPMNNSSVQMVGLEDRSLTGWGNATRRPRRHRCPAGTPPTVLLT

[5] = molecular target: T5, HDIP3-DBD (Arabidopsis thaliana) (UniProt Q9LMG4); assay: EMSA
T5 sequence: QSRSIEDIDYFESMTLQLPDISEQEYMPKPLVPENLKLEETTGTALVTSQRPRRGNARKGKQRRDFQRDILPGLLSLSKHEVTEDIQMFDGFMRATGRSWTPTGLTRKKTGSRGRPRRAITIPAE

[6] = molecular target: T1, HDIP1-c (Arabidopsis thaliana); assay: competition

| Sequence | binding [1] | binding [2] | binding [3] | binding [4] | binding [5] | binding [6] |
| --- | --- | --- | --- | --- | --- | --- |
| TTCCTAAGAGGTCTAGATTGGTGCTTGGACTTTAATTTGGTCTTCGTCTCTCGTTCTCGTATTTATGCATTTTGAAACTCAAAAAAGGAAGAGAGAGAAGAATAATATGATTTTGGCTACTTGGTTTGGAAATAAGTTAATTAAGTAAAAGTGTATTGAGATATAATTCAATGGTACGTGTGTGAATCCAAAGTCGTGTT (double strand) [P3 (200 bp)] | binds |  |  |  |  |  |
| CCACTCCACATAGCTACGTCACTTAAAGTCCCATAGTAACTAATTTTCTTTGAATGTTATAGCAAATTATTAGCAATGTATGATTCTTTGGGTCAAATCTTACACTAAAAACATGAAAATAATTTGAATATCAAGAGATTCATATATTCATATTTTATAACCAAAATATGTAGGGTCTAAATTATTGCTTCTTGACTAGG (double strand) [P2 (200 bp)] | binds |  |  |  |  |  |
| TGTGAAGAATGCAGTAAGAGGCAGTCAAAGATTCAAAGGGAAAAAAGTTTACGAAAACAAAAGATTATATTTTGGGAGTATTAGGCTGCCACGTGGAAACACTTGCACCGGCATTTGACCGTCGCCGACACATGACCTGGCACGTGCTAGAGACTGTCTTCTCTTCTTCTTCTTCTTTTTCCCTCACTGTTTCACGAACC (double strand) [P1 (200 bp)] | binds | no binding | no binding | no binding | binds | binds |
